The target of one experiment is T1, TmrAB (Thermus thermophilus, UniProt Q72J04+Q72J05, Q72J05:E523Q).
T1 construct: gene TT_C0976
The experiment can be described thus: biochemical.

In experiment [1] the target is TmrA^E523QB (Thermus thermophilus). To be noted: scale: translocated peptides per TmrA^EQB complex.
The target of experiment [2] is Thermus thermophilus multidrug resistance transport complex TmrAB, wildtype (Thermus thermophilus).
In experiment [3] the target is TmrA^E523QB (Thermus thermophilus).
For experiment [4] the target is unchanged. The source holds these as a separate data set.
Experiment [5] shares this target. Nature of the experiment: radioligand binding; SPA time course at 20 °C; TmrA^EQB (0.2 µM) first converted to the OF state with Mg2+-ATP (5 min, 45 °C), excess ATP removed by rapid gel filtration, then R9LQK (10 µM, traced with 3H-R9L); mono-exponential fit; apparent.
The target of experiment [6] is Thermus thermophilus multidrug resistance transport complex TmrAB, wildtype (Thermus thermophilus). Nature of the experiment: radioligand binding; scintillation proximity assay (SPA), equilibrium; His-tagged TmrAB (0.2 µM) in lipid nanodiscs held on copper-chelated SPA beads; R9LQK traced with 3H-R9L; no nucleotide (IF conformation); 20 °C; background with 200 mM imidazole; one-site binding model. For orientation: Scintillation proximity formats need no separation of bound from free tracer.

One may read the EC50 as the concentration that produces a half-maximal response. As usually defined, the Kd is the free concentration of one partner at which half of the binding sites on the other are occupied at equilibrium, for simple one-to-one binding.

Where no end group is shown, it is not given here. fluorescein = fluorescein (from 5-iodoacetamide fluorescein) label on the Cys side chain

`Nc1ncnc2c1ncn2[C@@H]1O[C@H](COP(=O)(O)OP(=O)(O)OP(=O)(O)O)[C@@H](O)[C@H]1O` [ATP]: the EC50 at TmrAB is 30 µM.

B1: C4F peptide (RRYC^fluoresceinKSTEL) (peptide)
peptide: RRYC(fluorescein)KSTEL
modifications: also: fluorescein attached via 5-iodoacetamide fluorescein
B1: the translocated C4F peptides per TmrA^EQB complex; single-turnover transport into proteoliposomes (50 µM C4F, 3 mM Mg2+-ATP, 5 min at 45 °C), fluorescence read-out in experiment [1] was determined as 0.5. In experiment [2], this molecule yielded a transported C4F peptides with ATP against the background control with ADP; single-liposome flow cytometry (30 µM C4F, 3 mM Mg2+-ATP or Mg2+-ADP, 5 min at 45 °C) of 100 fold. In experiment [3], this molecule yielded a C4F peptides transported per liposome in the burst phase (0–5 min at 45 °C) of a time course; single-liposome flow cytometry (30 µM C4F, 3 mM Mg2+-ATP) (peptides per liposome) of 30. The C4F peptides translocated per correctly oriented TmrA^EQB upon each IF-to-OF transition; single-liposome flow cytometry (30 µM C4F, 3 mM Mg2+-ATP, two consecutive switches) (peptides per correctly oriented TmrA^EQB) in experiment [4] was 1.3.

B2: R9LQK peptide (…) (peptide)
peptide: RRYQKSTEL
On to B2, for which, in experiment [5], the apparent association rate kon (recovery of peptide binding along the OF-to-IF return) worked out at 0.03 min⁻¹ and the half-life of the recovery of peptide binding came to 24 min. Further, in experiment [6], the dissociation constant (Kd) amounted to 70 µM.

(Values after publication PMC7205462 (eLife, 2020).)
